# Test results published in patent publication US20240400677A1 (ELECTRA THERAPEUTICS, published 2024).
# T1: cynomolgus monkey SIRPγ on CHO cells (cynomolgus monkey, UniProt Q9P1W8 29-386 (human entry))
# T1 construct: also called Cyno SIRPγ CHO
# T1 chain: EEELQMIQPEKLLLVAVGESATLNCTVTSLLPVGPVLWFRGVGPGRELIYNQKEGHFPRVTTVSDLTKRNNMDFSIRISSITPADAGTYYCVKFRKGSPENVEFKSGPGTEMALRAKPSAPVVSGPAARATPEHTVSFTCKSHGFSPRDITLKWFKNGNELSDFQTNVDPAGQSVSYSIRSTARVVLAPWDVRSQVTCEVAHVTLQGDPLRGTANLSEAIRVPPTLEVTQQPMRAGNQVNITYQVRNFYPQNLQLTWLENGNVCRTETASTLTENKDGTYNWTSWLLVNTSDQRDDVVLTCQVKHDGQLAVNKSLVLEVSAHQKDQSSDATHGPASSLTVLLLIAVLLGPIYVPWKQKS
# T2: cynomolgus monkey SIRPγ-His monomer protein (cynomolgus monkey, UniProt Q9P1W8 29-359 (human entry), limits assumed)
# T2 construct: also called Cyno SIRPγ; Cyno SIRPγ-His
# T2 chain: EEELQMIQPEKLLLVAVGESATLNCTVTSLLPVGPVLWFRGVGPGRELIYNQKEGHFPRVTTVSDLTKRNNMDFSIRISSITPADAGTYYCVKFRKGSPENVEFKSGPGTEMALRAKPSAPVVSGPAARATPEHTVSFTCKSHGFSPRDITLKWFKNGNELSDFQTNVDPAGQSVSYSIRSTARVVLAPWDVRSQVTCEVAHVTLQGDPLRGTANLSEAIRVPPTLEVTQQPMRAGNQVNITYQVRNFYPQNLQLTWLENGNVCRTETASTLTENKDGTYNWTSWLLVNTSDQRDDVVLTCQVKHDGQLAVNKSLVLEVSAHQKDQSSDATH
# T3: cynomolgus monkey SIRPα on CHO cells (cynomolgus monkey, UniProt A0A2K5VYQ9 31-507)
# T3 construct: whole, on cells; also called Cyno SIRPα CHO
# T3 sequence: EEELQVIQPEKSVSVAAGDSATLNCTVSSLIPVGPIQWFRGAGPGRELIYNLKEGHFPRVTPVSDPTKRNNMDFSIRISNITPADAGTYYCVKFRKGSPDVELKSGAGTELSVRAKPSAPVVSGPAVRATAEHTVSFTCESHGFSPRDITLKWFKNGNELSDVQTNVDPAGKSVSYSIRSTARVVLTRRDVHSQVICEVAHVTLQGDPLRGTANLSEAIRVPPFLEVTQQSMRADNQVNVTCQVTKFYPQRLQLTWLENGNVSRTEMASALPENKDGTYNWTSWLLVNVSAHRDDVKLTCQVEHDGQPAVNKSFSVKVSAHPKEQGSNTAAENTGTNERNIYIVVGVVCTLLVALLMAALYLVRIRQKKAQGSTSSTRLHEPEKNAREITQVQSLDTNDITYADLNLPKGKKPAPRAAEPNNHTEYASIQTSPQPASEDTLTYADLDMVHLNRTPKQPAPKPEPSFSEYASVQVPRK
# B1: Antibody 22 (scFv, V domains shown)
# VH: QVQLVQSGAEVKKPGASVKVSCKASGYTFTSHDINWVRQAPGQGLEWMGISNPSGGSTYYAQKFQGRVTMTRDTSTSTVYMELSSLRSEDTAVYYCASSRRYWNGAFDYWGQGTLVTVSS
# VL: not shown
# notes: scFv in crude PPE, V5/myc-tagged
# B2: Antibody 8 (antibody, V domains shown)
# VH: QVQLVQSGAEVKKPGASVKVSCKASGYTFTGYHIHWVRQAPGQGLEWMGWINPNSGGTNYAQKFQGRVTMTRDTSINTAYMELNRLRSDDTAVFYCARERVGYCSRPSCLDDLNIWGQGTMVTVSS
# VL: DIQMTQSPSTLSASVGDRVTITCRASQSISSWLAWYQQKPGKAPKLLIYKASSLETGVPSRFSGSGSGTEFTLTISSLQPDDFATYYCQQYDSYYTFGQGTKLEIK
# B3: Antibody 19 (scFv, V domains shown)
# VH: QVQLVQSGAEVKKPGASVKVSCKASGYTFTAYYMHWVRQAPGQGLEWMGIINPSGGSTSYAQKFQGRVTMTRDTSTSTVYMELSSLRSEDTAVYYCARDSGWYAPGYYYGMDVWGQGTTVTVSS
# VL: DIQMTQSPSSLSASVGDRVTITCRASESISHWLAWYQQKPGKAPKLLIYGASTLQSGVPSRFSGSGSGTDFTLTISSLQPEDFATYYCQQSYTPPLTFGGGTKVEIK
# notes: as for B1
# B4: Antibody 28 (scFv, V domains shown)
# VH: QVQLVQSGAEVKKPGASVKVSCKASGYTFTSYNIHWVRQAPGQGLEWMGWISAYNGNTNYAQKLQGRVTMTRDTSTSTVYMELSSLRSEDTAVYYCALDGGQLGVAFDIWGQGTMVTVSS
# VL: DIQMTQSPSSLSASVGDRVTITCRASQGISNWLAWYQQKPGKAPKLLIYDASNLDAGVPSRFSGSGSGTDFTLTISSLQPEDFATYYCQQANSLPLTFGGGTKVEIK
# notes: as for B1
# B5: Antibody 7 (antibody, V domains shown)
# VH: QVQLVESGGGVVQPGRSLRLSCAASGFTFSNYGMHWVRQAPGKGLEWVAFIWYDGSNKNYADSVKGRFTISRDNPTNTLYLQMNSLRAEDTAVYYCAREEQWLDYWGQGTLVTVSS
# VL: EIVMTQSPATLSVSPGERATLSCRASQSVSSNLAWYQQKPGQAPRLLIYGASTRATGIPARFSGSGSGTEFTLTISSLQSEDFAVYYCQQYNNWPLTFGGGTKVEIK
# Legend:
# [1] = target: T4, human SIRPγ on stably transfected CHO cells (human, UniProt Q9P1W8 29-387); assay: flow cytometry, myc-scFv PPE
# T4 construct: also called Human SIRPγ CHO
# T4 sequence (Q9P1W8 29-387 limits assumed): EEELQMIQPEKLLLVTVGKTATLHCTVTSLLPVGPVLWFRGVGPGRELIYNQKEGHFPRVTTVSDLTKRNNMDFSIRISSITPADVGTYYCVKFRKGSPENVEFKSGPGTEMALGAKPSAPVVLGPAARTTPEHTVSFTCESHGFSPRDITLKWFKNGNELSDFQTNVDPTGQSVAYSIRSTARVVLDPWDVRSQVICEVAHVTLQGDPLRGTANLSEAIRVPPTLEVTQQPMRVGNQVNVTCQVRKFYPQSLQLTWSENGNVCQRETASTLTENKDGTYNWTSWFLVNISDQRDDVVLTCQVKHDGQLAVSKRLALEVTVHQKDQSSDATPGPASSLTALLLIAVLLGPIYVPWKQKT
# Procedure, shortened: (§1)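 Stably transfected CHO cells were incubated with titrated antibodies, and binding was detected with a fluorescent anti-human IgG secondary. Median fluorescence intensity was recorded at each concentration. For the myc-scFv format, crude periplasmic extract was incubated with the SIRP-expressing lines and parental CHO-K1, and fold change <2.0 was scored as non-binder.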
# [2] = target: T1, cynomolgus monkey SIRPγ on CHO cells; assay: flow cytometry, myc-scFv PPE
# Procedure, shortened: as §1
# [3] = target: T5, human SIRPγ-His monomer protein (human, UniProt Q9P1W8 29-360); assay: BLI Octet, V5-scFv PPE captured, SIRP-His 500 nM
# T5 construct: also called hSIRPγ
# T5 sequence (Q9P1W8 29-360 limits assumed): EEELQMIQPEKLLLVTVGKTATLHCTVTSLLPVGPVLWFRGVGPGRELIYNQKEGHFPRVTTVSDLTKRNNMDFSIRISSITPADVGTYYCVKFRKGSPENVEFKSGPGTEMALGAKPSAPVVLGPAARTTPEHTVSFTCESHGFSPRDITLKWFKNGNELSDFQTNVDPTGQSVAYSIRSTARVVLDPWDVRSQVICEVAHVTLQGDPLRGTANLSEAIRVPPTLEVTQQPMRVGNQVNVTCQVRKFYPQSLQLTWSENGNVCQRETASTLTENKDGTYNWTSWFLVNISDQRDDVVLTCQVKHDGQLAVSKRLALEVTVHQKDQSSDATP
# [4] = target: T6, human SIRPβ1-His monomer protein (human, UniProt O00241 30-371, limits assumed); assay: BLI Octet, V5-scFv PPE captured, SIRP-His 500 nM
# T6 sequence (O00241 30-371 limits assumed): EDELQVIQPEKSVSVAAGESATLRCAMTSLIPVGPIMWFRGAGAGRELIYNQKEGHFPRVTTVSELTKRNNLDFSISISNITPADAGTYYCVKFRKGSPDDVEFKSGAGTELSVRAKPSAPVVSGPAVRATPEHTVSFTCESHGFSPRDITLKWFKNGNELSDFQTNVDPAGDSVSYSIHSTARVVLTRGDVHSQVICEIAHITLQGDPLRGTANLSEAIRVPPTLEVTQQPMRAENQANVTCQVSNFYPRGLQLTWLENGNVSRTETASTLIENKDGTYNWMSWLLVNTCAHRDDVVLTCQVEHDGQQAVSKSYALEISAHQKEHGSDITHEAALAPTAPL
# [5] = target: T2, cynomolgus monkey SIRPγ-His monomer …; assay: BLI Octet, captured scFv PPE, cyno SIRP
# Procedure, shortened: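 Bio-layer interferometry used biotinylated anti-V5 on streptavidin sensors to capture V5-tagged scFv from crude periplasmic extract. Monomeric His-tagged SIRP protein at 500 nM was associated, then dissociated in wash buffer. Off-rate (kdis) was analyzed from the kinetic traces.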
# [6] = target: T7, human SIRPγ on primary human T-cells (human, UniProt Q9P1W8 29-387); assay: flow cytometry, dye-conjugated antibody, human whole blood (3 donors)
# T7 construct: endogenous SIRPγ of donor T-cells; also called SIRPγ on T-cells
# T7 sequence (Q9P1W8 29-387 limits assumed): as the sequence (Q9P1W8 29-387 limits assumed) above
# Protocol: Selected antibodies and an isotype control were tested for binding to human T-cells, B-cells, NK cells, monocytes, and granulocytes. […] Up to 50 μg/mL fluorescent dye-conjugated antibodies or isotype controls were incubated with whole blood from three normal donors. T-cells were identified as the CD14−, CD20−, SSClow, and CD3+ population or further identified to be CD4+ or CD8+ populations. B-cells were identified as the CD14−, SSClow, and CD20+ population. NK cells were identified as CD14−, CD20−, CD3−, and CD56+. Monocytes were identified as the SSClow and CD14+ population. Granulocytes were identified as the CD14−, CD20−, CD3−, SSChigh population. Graphs depict the median fluorescence intensity (MFI) of each population.
# [7] = target: T6, human SIRPβ1-His monomer protein; assay: BLI
# Protocol: (§2) Select antibodies from Example 1 of the disclosure were tested for their affinities to human SIRPγ, cynomolgus monkey SIRPγ, human SIRPαV1, human SIRPαV2, and human SIRPβ1 using a biolayer interferometry (BLI) Octet system (Pall ForteBio). Each antibody was immobilized on a biosensor tip by an anti-human IgG capture (AHC). […] The biosensors were then exposed to wash buffer to measure off-rate kinetics. The resulting kinetic data were analyzed and fitted using a 1:1 binding model.
# [8] = target: T8, extracellular binding domain of human SIRPγ (plate-coated) (human, UniProt Q9P1W8 29-360); assay: ELISA, coated SIRP ECD (2 µg/mL), anti-human IgG, luminescence
# T8 construct: also called hSIRPγ
# T8 sequence (Q9P1W8 29-360 limits assumed): as the sequence (Q9P1W8 29-360 limits assumed) above
# Procedure, shortened: (§3)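 Plate-coated SIRP extracellular domain (2 μg/mL), blocked, then exposed to purified antibodies in titration, after transient expression in Expi293F cells for 5 days and Protein A purification. Bound antibody is detected with anti-human IgG and a chemiluminescent substrate, and reported as relative luminescence units.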
# [9] = target: T5, human SIRPγ-His monomer protein; assay: BLI Octet, antibody on AHC, SIRP-His monomer, 1:1 model
# Protocol: as §2
# [10] = target: T2, cynomolgus monkey SIRPγ-His monomer …; assay: as above
# Protocol: as §2
# [11] = target: T3, cynomolgus monkey SIRPα on CHO cells; assay: flow cytometry, myc-scFv PPE
# Procedure, shortened: as §1
# [12] = target: T9, human SIRPβ1 on CHO cells (co-transfected with DAP12) (human, UniProt O00241 30-398); assay: flow cytometry
# T9 construct: whole, on cells; co-transfected with DAP12; also called Human SIRPβ1 CHO
# T9 sequence (O00241 30-398): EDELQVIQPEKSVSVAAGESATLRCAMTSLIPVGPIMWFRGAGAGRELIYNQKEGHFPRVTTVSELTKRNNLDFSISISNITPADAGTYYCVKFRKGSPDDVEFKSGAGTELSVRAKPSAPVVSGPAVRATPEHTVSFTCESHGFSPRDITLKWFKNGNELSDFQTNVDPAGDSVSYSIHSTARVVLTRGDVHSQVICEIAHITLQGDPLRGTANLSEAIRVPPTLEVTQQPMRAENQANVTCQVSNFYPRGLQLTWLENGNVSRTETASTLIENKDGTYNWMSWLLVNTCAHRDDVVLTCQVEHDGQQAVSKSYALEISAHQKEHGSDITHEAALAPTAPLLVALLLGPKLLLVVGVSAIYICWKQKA
# [13] = target: T10, human SIRPα V2-His monomer protein (human, UniProt P78324 31-370, limits assumed); assay: BLI Octet, V5-scFv PPE captured, SIRP-His 500 nM
# T10 construct: the V2 allele differs from the canonical UniProt P78324 entry
# T10 sequence (P78324 other isoform, or with tags, fused parts or gaps limits assumed): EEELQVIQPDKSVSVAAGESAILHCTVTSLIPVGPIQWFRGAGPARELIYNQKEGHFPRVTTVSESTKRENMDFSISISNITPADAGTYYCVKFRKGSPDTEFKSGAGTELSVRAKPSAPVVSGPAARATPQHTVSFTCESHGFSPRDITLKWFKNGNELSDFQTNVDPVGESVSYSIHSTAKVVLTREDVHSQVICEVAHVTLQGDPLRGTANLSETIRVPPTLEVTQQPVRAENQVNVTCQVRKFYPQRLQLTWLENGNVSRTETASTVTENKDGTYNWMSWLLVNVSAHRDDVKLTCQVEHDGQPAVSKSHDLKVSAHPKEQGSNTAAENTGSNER
# [14] = target: T3, cynomolgus monkey SIRPα on CHO cells; assay: flow cytometry
# [15] = target: T10, human SIRPα V2-His monomer protein; assay: BLI
# Protocol: as §2
# [16] = target: T11, Human SIRPαV2 (plate-coated extracellular domain) (Homo sapiens, UniProt P78324); assay: ELISA, coated SIRP ECD (2 µg/mL), anti-human IgG, luminescence
# T11 construct: extracellular domain
# T11 sequence (P78324 other isoform, or with tags, fused parts or gaps limits assumed): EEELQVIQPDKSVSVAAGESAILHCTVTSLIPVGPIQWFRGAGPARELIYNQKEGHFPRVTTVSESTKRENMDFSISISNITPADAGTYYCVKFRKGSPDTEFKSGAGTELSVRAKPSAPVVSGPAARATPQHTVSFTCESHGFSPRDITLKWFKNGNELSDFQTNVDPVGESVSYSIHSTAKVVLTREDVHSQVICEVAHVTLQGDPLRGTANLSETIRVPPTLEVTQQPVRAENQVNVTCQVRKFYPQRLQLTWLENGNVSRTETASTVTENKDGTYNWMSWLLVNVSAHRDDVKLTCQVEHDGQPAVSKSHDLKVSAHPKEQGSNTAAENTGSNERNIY
# Procedure, shortened: as §3
Binder,MFI fold change over parental CHO [1] [fold],MFI fold change over parental CHO [2] [fold],kdis [3] [s⁻¹],kdis [4] [s⁻¹],binding result [5],EC50 (read off the curve) [6] [µg/mL],binding result [7],EC50 (read off the curve) [8] [µg/mL],Kd [9] [nM],Kd [10] [nM],MFI fold change over parental CHO [11] [fold],binding result [12],kdis [13] [s⁻¹],binding result [14],binding result [15],binding result [16]
B1,3.17,8.24,< 0.001,< 0.001,binds,,,,,,,,,,,
B2,,,,,,~0.1,no binding (tested: 300 nM),~0.04,2.07,8.01,,,,,,
B3,43.3,36.6,< 0.001,,,,,,,,2.01,no binding (tested: fold change <2.0),,,,
B4,46.5,24,0.001 to 0.01,< 0.001,binds,,,,,,,,0.001 to 0.01,no binding (tested: fold change <2.0),,
B5,,,,,,,no binding (tested: 300 nM),~0.3,296,2200,,,,,no binding (tested: 300 nM),no binding (tested: about 40 µg/mL)
